The nature of the data set: soluble on expression in E. coli; label from the status in PepcDB or PDB records.
For “PHRPVQESVANAYDALGGYLEAKADFFDPDEAAWIGNRHIDLAMSNTGVITAFNQCRSALFYRLRGKHRHPRTAKMLRYYFAAQDIHERISSAHVDYQEMSEKFKNTDIIFRIHRLLEMQGQACRNTAQALRASKDYVYSKRLGRAIEGCRQSLRLLSDSNDSPDIRHLRRLLDNLGSVDQQFRQLQHNGLQAENDRMGDTRIAALETSSLKNTWQAIRPQLNLESGVFRH”, the “soluble on expression in E. coli” value is given as “not soluble”.
With “PIGKATDNMYSYLALLQDDPTIQIVNQAQKAYVEKVAPSIAAMAGLPILSAGAPFKAGGRKNDPTGYTEVNKGKLTFRNAADLYLYPNTLVVVKATGEQLKEWLECSAGMFKQIDPTSDKPQSLIDWEGFRTYNFDVIDGVNYEYDLTKPARYDGECKLINPESHRVVNLTYQGKPVDPKAEFLIATNNYRAYGNKFPGTGDKHIVYASPDESRQILADYIKATSEKEGSVNPNADKNWRFVPI” the entry was “not soluble”; with “PKIAGIDLGTTYSSIGIYHAVTGETIILPDDLGKKSVPSVVAFLPNGTVLIGTRATEQQEHNPKRTIYDAKRFIGRNFEKNNKDFLSDQKRYPFKINLDSEGKAFFEIPLDSGTKNVYPEEIGSLIIGYLKSAAAKHLGVTLGQVVISCPAEFNEKQRNFTAKAAEIAEMEVRRVISEPTAAALAYGLHKKQGVENVVVVDLGGGTLDVSVLWLQGGVFVTQAMAGNNRLGGQDFNDRVQKHLISKIAEKFGKTIDNKEDIQQIRMEVEKGKIRLTNVPSTTISLNLKTVGKWNYELTRDEFETLNGDLLKAIELPITAALADANLDTADVDEIVLVGGSTQVPAVRKIVGRFFKKSANYGVDPELAVVTGASVQAGVIGGGWPLQVAAMELPAKRRKRHFFTEEQKENEKDRTISEL”, “not soluble”.
The same measure for “PKPPYSYIALITMAIRDSAGGRLTLAEINEYLMGKFPFFRGSYTGWRNSVRHNLSLNDCFVKVLRDPSRPWGKDNYWMLNPNSEYTFADGVFRRRRYRLS”: “soluble”.
The same measure for “PLGSDSAKLIFINQINDCKDGQKLRFLGCVQSYKNGILRLIDGSSSVTCDVTVVLPDVSIQKHEWLNIVGRKRQDGIVDVLLIRSAVGINLPRYRQMVSERQKCD”: “soluble”.
Regarding “PLKIGPPGHRYAFPLYSSKNLERDDLRGIRRLVIVLHGVKRNAASIHGTVTALFAANPERAEDTLVIAPKFASAIDAGFAAMPAWRRASWEDGELSMQARGRPAPVSSLQVLDDLLRELSDSSRLPALRTIVLAGHSGGAQLVQRYAVLNSLDETL”, the “soluble on expression in E. coli” value is “not soluble”.
The same measure for “PLNRLGHKIYQHSGKWLQETAAEKLNQRDQLINPGHAQVLILGMGRIGTGAYDELRARYGKISLGIEIREEAAQQHRSEGRNVISGDATDPDFWERILDTGHVKLVLLAMPHHQGNQTALEQLQRRNYKGQIAAIAEYPDQLEGLLESGVDAAFNIYSEAGSGFARHVCKQLEPQFTSIK”: “soluble”.
With “PPGTVDKKMVEKCWKLMDKVVRLCQNPKLALKNSPPYILDLLPDTYQHLRTILSRYEGKMETLGENEYFRVFMENLMKKTKQTISLFKEGKERMYEENSQPRRNLTKLSLIFSHMLAELKGIFPSGLFQGDTFRITKADAAEFWRKAFGEKTIVPWKSFRQALHEVHPISSGLEAMALKSTIDLTCNDYISVFEFDIFTRLFQPWSSLLRNWNSLAVTHPGYMAFLTYDEVKARLQKFIHKPGSYIFRLSCTRLGQWAIGYVTADGNILQTIPHNKPLFQALIDGFREGFYLFPDGRNQNPDLTGLCEPTPQDHIKVTQEQYELYCEMGSTFQLCKICAENDKDVKIEPCGHLMCTSCLTSWQESEGQGCPFCRCEIKGTEPIVVDPF” the entry was “soluble”.
As to “PREIVDFHAKLINDTPLSTYVGFLDDLQEHDEIDNARALSGIPGVVIVGEQDAVTPQSQSERIVSLWSDAGLQIAPNAGHMIILEQPAIVNKAIDQMVQQAAQNVQKDDA”, the “soluble on expression in E. coli” value is listed as “not soluble”.
With “PREVLTGGHSVSAPQENRIYVMDSVFMHLTESRVHVYDYTNGKFLGMVPTAFNGHVQVSNDGKKIYTMTTYHERITRGKRSDVVEVWDADKLTFEKEISLPPKRVQGLNYDGLFRQTTDGKFIVLQNASPATSIGIVDVAKGDYVEDVTAAAGCWSVIPQPNRPRSFMTICGDGGLLTINLGEDGKVASQSRSKQMFSVKDDPIFIAPALDKDKAHFVSYYGNVYSADFSGDEVKVDGPWSLLNDEDKAKNWVPGGYNLVGLHRASGRMYVFMHPDGKEGTHKFPAAEIWVMDTKTKQRVARIPGRDALSMTIDQQRNLMLTLDGGNVNVYDISQPEPKLLRTIEGAAEASLQVQFHPVGGT” the entry was “soluble”; with “PVMHPHGAPPNHRPWQMKDLQAIKQEVSQAAPGSPQFMQTIRLAVQQFDPTAKDLQDLLQYLCSSLVASLHHQQLDSLISEAETRGITSYNPLAGPLRVQANNPQQQGLRREYQQLWLAAFAALPGSAKDPSWA”, “soluble”; with “PVSQPDAPGHQRKVVSWIDVYTRATCQPREVVVPLTVELMGTVAKQLVPSCVTVQRCGGCCPDDGLECVPTGQHQVRMQILMIRYPSSQLGEMSLEEHSQCECRPKKKDSAVKPDSPRPLCPRCTQHHQRPDPRTCRCRCRRRSFLRCQGRGLELNPDTCRCRKLRR”, “soluble”.
With “PVTNMAELDAMIARVKKAQEEFATYSQEQVDKIFRAASLAANQARIPLAQQAVEESGMGIVEDKVIKNHFASEFIYNKYKDEQTCGILEEDDNLGTMTIAEPVGIICGIVPTTNPTSTAIFKSLISLKTRNGIIFSPHPRAKNSTNDAAKLVLDAAVAAGAPKDIIGWIDQPSVELSNALMKHDDIALILATGGPGMVKAAYSSGKPAIGVGAGNVPVVIDETADIKRAVASVLMSKTFDNGVVCASE” the entry was “not soluble”; with “QAAVTDYYKTLHLFFISPEKGKEFERSTSIRRRVKAMPHGVNRLFSSLYYYYTLIQERATPRLQRLLDQLEADYPQNTIPETLRQHLRKDSRR”, “not soluble”.
The same measure for “QAMFERFTDRARRVIVLAQEEARMLNHNYIGTEHILLGLIHEGEGVAAKALESMGISLDAVRQEVEEIIGQGSQPTTGHIPFTPRAKKVLELSLREGLQMGHKYIGTEFLLLGLIREGEGVAAQVLVKLGADLPRVRQQVIQLLSG”: “soluble”; for “QCTNGFDLDRQSGQCLDIDECRTIPEACRGDMMCVNQNGGYLCIPRTNPVYRGPYSNPYSTPYSGPYPAAAPPLSAPNYPTISRPLICRFGYQMDESNQCVDVDECATDSHQCNPTQICINTEGGYTCSCTDGYWLLEGQCLDIDECRYGYCQQLCANVPGSYSCTCNPGFTLNEDGRSCQDVNECATENPCVQTCVNTYGSFICRCDPGYELEEDGVHCSDMDECSFSEFLCQHECVNQPGTYFCSCPPGYILLDDNRSCQDINECEHRNHTCNLQQTCYNLQGGFKCIDPIRCEEPYLRISDNRCMCPAENPGCRDQPFTILYRDMDVVSGRSVPADIFQMQATTRYPGAYYIFQIKSGNEGREFYMRQTGPISATLVMTRPIKGPREIQLDLEMITVNTVINFRGSSVIRLRIYVSQYPF”: “soluble”.
“QGMQTKKAFLYVFNTMSDWEYGYLIAELNSGRYFKKDLAPLKVITVGANKEMITTMGGLRIKPDISLDECTLESKDLLILPGGTTWSEEIHQPILERIGQALKIGTIVAAICGATDALANMGYLDTRKHTSNNLEYTKMVCPNYKGEKFYELGPAVSDANLVTASGIAPLEFAMEVLKKIDVFTLDALHSWYNLNKTHKPEYFFQLMNSINK”: the “soluble on expression in E. coli” value is listed as “soluble”.
With “QITYWKERQRRKTIRAEEIRGLIYRIWKIYPSLLGQELLESTIFVFMVLAAVARLGAEDVAVYKLLDLVCGMLELPVYAYAAATQTYALQNHAAGKKAAVRSYEK” the entry was “not soluble”; with “QKPYKETYGISHITRHDMLQIPEQQKNEKYQVPEFDSSTIKNISSAKGLDVWDSWPLQNADGTVANYHGYHIVFALAGDPKNADDTSIYMFYQKVGETSIDSWKNAGRVFKDSDKFDANDSILKDQTQEWAGSATFTSDGKIRLFYTDFSGKHYGKQTLTTAQVNVSASDSSLNINGVEDYKSIFDGDGKTYQNVQQFIDEGNYSSGDNHTLRDPHYVEDKGHKYLVFEANTGTEDGYQGEESLFNKAYYGKSTSFFRQESQKLLQSDKKRTAELANGALGMIELNDDYTLKKVMKPLIASNTVTDEIERANVFKMNGKWYLFTDSRGSKMTIDGITSNDIYMLGYVSNSLTGPYKPLNKTGLVLKMDLDPNDVTFTYSHFAVPQAKGNNVVITSYMTNRGFYADKQSTFAPSFLLNIKGKKTSVVKDSILEQGQLTVN”, “soluble”; with “QLLKVCMKLPKIDWYLGLSCPSNDMPLYLMRLFSRKPVVQMIHGPVGVARSSGYCLVKASAIYYLSNTRESLINALQAYLKTPKPATERYWSTLNASTFVNGLSRERWPKQANPISNRVFWAASLLKWKNVDLLLDALTLENTTTIQSTICYIKPNVPGVEYSTPDFNTKGVDWYESPNNLNELRAQCGVFVSTSVNEP”, “not soluble”.
The same measure for “QLSSFETCAEKEESANTTESAIFEYHCEMSFDPNLLHNNGHNGYPNGTSAALRETGVIEKLLTSYGFIQCSERQARLFFHCSQYNGNLQDLKVGDDVEFEVSSDRRTGKPIAVKLVKIKQEILPEERMNGQVVCAVPHNLESKSPAAPGQSPTGSVCYERNGEVFYLTYTPEDVEGNVQLETGDKINFVIDNNKHTGAVSARNIMLLKKKQARCQGVVCAMKEAFGFIERGDVVKEIFFHYSEFKGDLETLQPGDDVEFTIKDRNGKEVATDVRLLPQGTVIFEDISIEHFEGTVTKVIPKVPSKNQNDPLPGRIKVDFVIPKELPFGDKDTKSKVTLLEGDHVRFNISTDRRDKLERATNIEVLSNTFQFTNEAREMGVIAAMRDGFGFIKCVDRDVRMFFHFSEILDGNQLHIADEVEFTVVPDMLSAQRNHAIRIKKLPKGTVSFHSHSDHRFLGTVEKEATFSNPKTTSPNKGKEKEAEDGIIAYDDCGVKLTIAFQAKDVEGSTSPQIGDKVEFSISDKQRPGQQVATCVRLLGRNSNSKRLLGYVATLKDNFGFIETANHDKEIFFHYSEFSGDVDSLELGDMVEYSLSKGKGNKVSAEKVNKTHSVNGITEEADPTIYSGKVIRPLRSVDPTQTEYQGMIEIVEEGDMKGEVYPFGIVGMANKGDCLQKGESVKFQLCVLGQNAQTMAYNITPLRRATVECVKDQFGFINYEVGDSKKLFFHVKEVQDGIELQAGDEVEFSVILNQRTGKCSACNVWRVCEGPKAVAAPRPDRLVNRLKNITLDDASAPRLMVLRQPRGPDNSMGFGAERKIRQAGVID”: “soluble”; for “QNDLMIQSQVKFYTILFSARRATPELEIPEGSFYNGIRGYNLFVAKKDRRTGMLHDMMIYDHSQGFADARIIVADSGKLKMDEGKTFLTLMLHSGETFQNLRSQQTESNAPTPYMRERFRTKEIVIPFDANFSLMDEGAMRGEYVGKNLIQLQRFIDTVTLRVDSASFRNANNLYIQTYNAR”: “not soluble”.

For the origin of these results see the DeepSol protein solubility set.
